Assay [1] concerns the target T1, human IL-12Rβ2 expressed on cells (human, UniProt Q99665 24-862).
T1 sequence: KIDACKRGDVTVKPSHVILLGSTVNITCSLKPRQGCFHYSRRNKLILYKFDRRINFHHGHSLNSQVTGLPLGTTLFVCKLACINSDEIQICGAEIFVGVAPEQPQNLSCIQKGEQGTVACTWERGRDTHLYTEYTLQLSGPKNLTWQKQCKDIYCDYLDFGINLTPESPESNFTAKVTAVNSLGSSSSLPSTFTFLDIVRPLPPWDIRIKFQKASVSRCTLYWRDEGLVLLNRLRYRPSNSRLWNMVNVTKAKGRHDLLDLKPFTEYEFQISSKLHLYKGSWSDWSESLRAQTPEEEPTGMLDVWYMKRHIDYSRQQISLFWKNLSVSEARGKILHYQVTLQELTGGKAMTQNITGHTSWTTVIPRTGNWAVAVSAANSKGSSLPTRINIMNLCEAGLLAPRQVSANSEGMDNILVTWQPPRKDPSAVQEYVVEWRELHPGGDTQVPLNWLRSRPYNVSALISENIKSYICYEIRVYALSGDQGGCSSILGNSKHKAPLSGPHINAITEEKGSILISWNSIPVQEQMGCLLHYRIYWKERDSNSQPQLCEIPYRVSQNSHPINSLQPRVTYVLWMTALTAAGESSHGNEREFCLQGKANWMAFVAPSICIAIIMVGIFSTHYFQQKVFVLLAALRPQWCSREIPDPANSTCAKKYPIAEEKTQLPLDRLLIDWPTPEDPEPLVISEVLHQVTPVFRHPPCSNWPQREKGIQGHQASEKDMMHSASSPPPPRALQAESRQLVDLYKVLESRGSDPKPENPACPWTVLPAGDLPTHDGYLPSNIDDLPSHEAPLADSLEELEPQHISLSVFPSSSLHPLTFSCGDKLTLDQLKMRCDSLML
Put plainly: cell-based or functional assay.

For another assay, the target named is T2, human IL-12Rβ2 (human, UniProt Q99665 24-862).
T2 construct: Expressed on HEK293T cells transiently transfected with a pcDNA3 plasmid (Genscript clone OHu21785); also called hIL-12RB2; IL-12 receptor β2 subunit
T2 sequence: T1 sequence
Put plainly: flow cytometry, P.E. on transfected HEK293T cells. (In flow cytometry, cells or beads pass a laser one at a time.)

The next assay deals with T3, mouse IL-12Rβ2 (mouse, UniProt P97378 24-874).
T3 construct: Expressed on HEK293T cells transiently transfected with a pcDNA3 plasmid (Genscript clone OMu01776); also called mIL-12RB2; NP_032380.1
T3 sequence: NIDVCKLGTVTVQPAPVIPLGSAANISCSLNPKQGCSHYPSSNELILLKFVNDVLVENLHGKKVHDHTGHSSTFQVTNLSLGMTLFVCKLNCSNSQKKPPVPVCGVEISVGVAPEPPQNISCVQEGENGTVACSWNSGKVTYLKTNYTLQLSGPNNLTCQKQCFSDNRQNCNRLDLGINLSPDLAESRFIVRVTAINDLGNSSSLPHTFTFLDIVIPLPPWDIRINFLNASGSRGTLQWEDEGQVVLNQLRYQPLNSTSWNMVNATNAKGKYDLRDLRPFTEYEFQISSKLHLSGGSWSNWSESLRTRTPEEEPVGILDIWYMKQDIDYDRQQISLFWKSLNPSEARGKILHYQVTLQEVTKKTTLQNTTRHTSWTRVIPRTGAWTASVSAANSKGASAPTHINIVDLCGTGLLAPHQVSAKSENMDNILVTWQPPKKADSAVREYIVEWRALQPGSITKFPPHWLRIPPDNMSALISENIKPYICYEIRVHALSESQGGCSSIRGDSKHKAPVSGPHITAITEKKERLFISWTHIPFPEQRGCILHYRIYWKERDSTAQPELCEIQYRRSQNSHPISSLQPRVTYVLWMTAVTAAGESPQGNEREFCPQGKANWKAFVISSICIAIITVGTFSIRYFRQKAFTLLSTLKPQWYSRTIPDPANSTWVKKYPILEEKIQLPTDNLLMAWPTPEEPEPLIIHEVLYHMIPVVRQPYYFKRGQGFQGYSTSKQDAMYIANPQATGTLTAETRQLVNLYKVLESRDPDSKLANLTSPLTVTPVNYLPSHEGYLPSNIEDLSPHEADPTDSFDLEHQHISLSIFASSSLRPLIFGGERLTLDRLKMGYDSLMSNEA
Put plainly: flow cytometry, P.E. on transfected HEK293T cells.

Changes are numbered by the printed parent chain.

B1: anti-IL-12Rβ2-VHH-FcDE clone 21060 (Fc fusion)
chain: QVQLQESGGGLVQAGGSLSLSCAASGSAFRLNFMGWYRQAPGKQRELVAAINSGGTEIYHDSVKGRFTISRDNADSTVWLQMNSLKPDDTAVYYCAADRGISWSKLAGGMDYWGKGTQVTVSSAPELLGGPDVFLFPPKPKDTLMISRTPEVTCVVVDVSHEDPEVKFNWYVDGVEVHNAKTKPREEQYNSTYRVVSVLTVLHQDWLNGKEYKCKVSNKALPAPEEKTISKAKGQPREPQVYTLPPSRDELTKNQVSLTCLVKGFYPSDIAVEWESNGQPENNYKTTPPVLDSDGSFFLYSKLTVDKSRWQQGNVFSCSVMHEALHNHYTQKSLSLSPGK
Turning to B1, in assay [1], the “% Specific Cell Lysis at 0.025 ug/mL” value stood at 63.9%, the “% Specific Cell Lysis at 0.5 ug/mL” value was determined as 73.5% and the “% Specific Cell Lysis at 10 ug/mL” value turned out to be 75.5%.

B2: anti-IL-12Rβ2 VHH clone 3CRHM49 (VHH, not shown: small tags and cut ends)
VHH: QVQLQESGGGLVQAGGSLRLSCAASGRTFSNYAMAWFRQAPGTEREFVAGLSGSGGDTAFYDNSVMGRFTISRDSAKNTMWLQINNLKPEDTAVYYCAAATHVVVSYGLVRRRGTYDYWGQGTQVTVSS
notes: periplasmic extract; also called 21058
B2: in the assay with human IL-12Rβ2, the “% cells bound” value is 36% and the dMFI is 759. In the assay with mouse IL-12Rβ2, the “% cells bound” value turned out to be 17.1% and the dMFI was 421.

B3: anti-IL-12Rβ2 VHH clone 3CRHM14 (VHH, not shown: small tags and cut ends)
VHH: B2 VHH with A59E, N63D, M66K, T70A, M80V, I84M, N86S, S106H
notes: periplasmic extract
In the case of B3, in the assay with human IL-12Rβ2, the “% cells bound” value was determined as 35.8% and the dMFI came to 689. In the assay with mouse IL-12Rβ2, the “% cells bound” value is 18.6% and the dMFI stood at 412.

B4: anti-IL-12Rβ2 VHH clone 3CRHM35 (VHH, not shown: small tags and cut ends)
VHH: B2 VHH with S106N
notes: periplasmic extract; also called 21057
As to B4, in the assay with human IL-12Rβ2, the “% cells bound” value worked out at 37.3% and the dMFI is 826. In the assay with mouse IL-12Rβ2, the “% cells bound” value amounted to 16% and the dMFI came to 425.

B5: anti-IL-12Rβ2 VHH clone 3CRHM18 (VHH, not shown: small tags and cut ends)
VHH: B2 VHH with A14D, R112K
notes: periplasmic extract
In the case of B5, in the assay with human IL-12Rβ2, the “% cells bound” value is 36.7% and the dMFI turned out to be 767. Also, in the assay with mouse IL-12Rβ2, the “% cells bound” value was 15.3% and the dMFI was 369.

B6: anti-IL-12Rβ2 VHH clone 3CAHM11 (VHH, not shown: small tags and cut ends)
VHH: QVQLQESGGGLVQAGGSLRLSCAASGRTFNNYAMAWFRQAPGKEREFIAAITRSDTTLYIDSVKGRFTISRDNAKNTVALQMNSLKPEDTAVYYCAAGMPYSYSDYPRDSKYDYWGRGTQVTVSS
notes: periplasmic extract
Take B6: in the assay with human IL-12Rβ2, the “% cells bound” value is 37.6% and the dMFI turned out to be 784. In the assay with mouse IL-12Rβ2, the “% cells bound” value was determined as 7.51% and the dMFI is 294.

B7: anti-IL-12Rβ2-VHH-FcDE clone 21062 (Fc fusion)
chain: QVQLQESGGGLVQPGGSLRLSCAASGISSSRLHVGWFRQSPGKEREFVAAISLSGGTQAYTDSVKGRFTISGDNVKNTAYLQMNSLRPEDTAVYYCAARERFIWTWSDLTYDYWGQGTQVTVSSAPELLGGPDVFLFPPKPKDTLMISRTPEVTCVVVDVSHEDPEVKFNWYVDGVEVHNAKTKPREEQYNSTYRVVSVLTVLHQDWLNGKEYKCKVSNKALPAPEEKTISKAKGQPREPQVYTLPPSRDELTKNQVSLTCLVKGFYPSDIAVEWESNGQPENNYKTTPPVLDSDGSFFLYSKLTVDKSRWQQGNVFSCSVMHEALHNHYTQKSLSLSPGK
Regarding B7, in assay [1], the “% Specific Cell Lysis at 0.00125 ug/mL” value stood at 52.7%, the “% Specific Cell Lysis at 0.5 ug/mL” value came out at 60.9% and the “% Specific Cell Lysis at 10 ug/mL” value was 69.5%.

B8: anti-IL-12Rβ2-VHH-Fc clone 20432 with a wildtype IgG1 Fc sequence (Fc fusion)
chain: QVQLQESGGGLVQPGGSLRLSCAASGFTFSTSGMHWFRQAPGKGLEWVSSIGATVDNSYYASSVKGRFTISRDNAKNTLYLLMNSLKSEDTAVYYCSKDPTGSSRGQGTQVTVSSAPELLGGPSVFLFPPKPKDTLMISRTPEVTCVVVDVSHEDPEVKFNWYVDGVEVHNAKTKPREEQYNSTYRVVSVLTVLHQDWLNGKEYKCKVSNKALPAPIEKTISKAKGQPREPQVYTLPPSRDELTKNQVSLTCLVKGFYPSDIAVEWESNGQPENNYKTTPPVLDSDGSFFLYSKLTVDKSRWQQGNVFSCSVMHEALHNHYTQKSLSLSPGK
Regarding B8, the “% Specific Cell Lysis at 0.025 ug/mL” value in assay [1] came out at 54.3%.

B9: 20429-FcDE (Fc fusion)
VHH-Fc chain: QVQLQESGGGLVQPGGSLRLSCKASGFTFSTYAMSWVRQAPGKGLEWVSAVNSGGLSTDYADSVEGRFTISRDDAKNMLFLQMNSLKPEDTARYYCAKYEDCSDYMCHRDRAGYWGQGTQVTVSSAPELLGGPDVFLFPPKPKDTLMISRTPEVTCVVVDVSHEDPEVKFNWYVDGVEVHNAKTKPREEQYNSTYRVVSVLTVLHQDWLNGKEYKCKVSNKALPAPEEKTISKAKGQPREPQVYTLPPSRDELTKNQVSLTCLVKGFYPSDIAVEWESNGQPENNYKTTPPVLDSDGSFFLYSKLTVDKSRWQQGNVFSCSVMHEALHNHYTQKSLSLSPGK
Regarding B9, in assay [1], the “% Specific Cell Lysis at 0.00125 ug/mL” value turned out to be 59%, the “% Specific Cell Lysis at 0.5 ug/mL” value was determined as 67.7% and the “% Specific Cell Lysis at 10 ug/mL” value worked out at 67.3%.

B10: anti-IL-12Rβ2-VHH-FcDE clone 21053 (Fc fusion)
chain: QVQLQESGGGLVQAGGSLRLSCAASGRTFSNYAMAWFRQAPGTEREFVAGLSGSGGDTEFYDDSVKGRFAISRDSAKNTVWLQMNSLKPEDTAVYYCAAATHVVVHYGLVRRRGTYDYWGQGTQVTVSSAPELLGGPDVFLFPPKPKDTLMISRTPEVTCVVVDVSHEDPEVKFNWYVDGVEVHNAKTKPREEQYNSTYRVVSVLTVLHQDWLNGKEYKCKVSNKALPAPEEKTISKAKGQPREPQVYTLPPSRDELTKNQVSLTCLVKGFYPSDIAVEWESNGQPENNYKTTPPVLDSDGSFFLYSKLTVDKSRWQQGNVFSCSVMHEALHNHYTQKSLSLSPGK
Consider B10, for which, in assay [1], the “% Specific Cell Lysis at 0.00125 ug/mL” value worked out at 46.5%, the “% Specific Cell Lysis at 0.025 ug/mL” value worked out at 51.6%, the “% Specific Cell Lysis at 0.5 ug/mL” value was found to be 64.7% and the “% Specific Cell Lysis at 10 ug/mL” value is 73.3%.

B11: anti-IL-12Rβ2-VHH-FcDE clone 21050 (Fc fusion)
chain: QVQLQESGGGLVQAGGSLRLSCAASGRTFNNYAMAWFRQAPGKEREFIAAITRSDTTLYIDSVKGRFTISRDNAKNTVALQMNSLKPEDTAVYYCAAGMPYSYSDYPRDSKYDYWGRGTQVTVSSAPELLGGPDVFLFPPKPKDTLMISRTPEVTCVVVDVSHEDPEVKFNWYVDGVEVHNAKTKPREEQYNSTYRVVSVLTVLHQDWLNGKEYKCKVSNKALPAPEEKTISKAKGQPREPQVYTLPPSRDELTKNQVSLTCLVKGFYPSDIAVEWESNGQPENNYKTTPPVLDSDGSFFLYSKLTVDKSRWQQGNVFSCSVMHEALHNHYTQKSLSLSPGK
With B11, in assay [1], the “% Specific Cell Lysis at 0.00125 ug/mL” value is 42.4%, the “% Specific Cell Lysis at 0.025 ug/mL” value was determined as 50.1%, the “% Specific Cell Lysis at 0.5 ug/mL” value came to 61.3% and the “% Specific Cell Lysis at 10 ug/mL” value was 63.7%.

B12: anti-IL-12Rβ2-VHH-FcDE clone 20438 (Fc fusion)
chain: QVQLQESGGGLVQPGGSLRLSCTASGFAFSTYWMYWIRQSPEKGFEWVSVVNTGGDITYYADSVKGRFTISRDNAKNTLYLQMNSLKPEDTALYYCARDRTTMSYTRTYYRGGQGTQVTVSSAPELLGGPDVFLFPPKPKDTLMISRTPEVTCVVVDVSHEDPEVKFNWYVDGVEVHNAKTKPREEQYNSTYRVVSVLTVLHQDWLNGKEYKCKVSNKALPAPEEKTISKAKGQPREPQVYTLPPSRDELTKNQVSLTCLVKGFYPSDIAVEWESNGQPENNYKTTPPVLDSDGSFFLYSKLTVDKSRWQQGNVFSCSVMHEALHNHYTQKSLSLSPGK
With B12, in assay [1], the “% Specific Cell Lysis at 0.00125 ug/mL” value came out at 49.5%, the “% Specific Cell Lysis at 0.5 ug/mL” value turned out to be 63.4% and the “% Specific Cell Lysis at 10 ug/mL” value is 66.9%.
